Results taken from patent US20220112276A1 (Janssen / Centocor, published 2022).

What was measured:
[1] = target: T1, human pIgR extracellular domain (ECD) (human, UniProt P01833 19-638); assay: SPR, VHH captured by anti-Fc, ECD analyte
T1 construct: Bought from R&D Systems (Cat 2717-PG-050); also called hpIgR ECD
Method: (§1) In an assay, two flow cells of the SPR were used, in which the flow cell 1 ran the buffer reference, and the flow cell 2 ran the analyte. […] The HBSP (GE) buffer was followed at a flow rate of 30 μL/min. Then, the VHHs were captured on the anti-human Fc protein surface at 0.5 ug/ml (˜200-300 RU) on the flow cell 2. The running buffer was changed to HBSP with 100 ug/ml BSA after the capture. Next, the pIgR extracellular domains were used as analyte and loaded in a series of concentrations, starting at 30 nM with further 3-fold dilution series.
(§2) The extracellular domains were prepared as follows: cynomolgus monkey and rat extracellular domains were produced and characterized in house; mouse and human pIgR extracellular domains were purchased from R&D Systems (Cat #2800-PG-050 & 2717-PG-050 respectively). The pIgR extracellular domains were injected from low to high concentration using a single-cycle kinetics method. The off-rate was monitored at 30 minutes after the last or highest concentration injection. The reference run was completed under the same conditions except that the pIgR injection was replaced by buffer injection.
(§3) The raw data were processed by subtracting two sets of reference data from the response data: (1) reference flow cell 1 subtracted from sample flow cell 2; and (2) buffer blank run subtracted from experimental run. The processed data at all concentrations for each VHH were globally fit to a 1:1 simple Langmuir binding model to extract estimates of the kinetic constants (kₒₙ, koff) and affinity constants (KD).

[2] = target: T2, cynomolgus monkey pIgR extracellular domain (cynomolgus monkey, UniProt A0A2K5WMU9 19-638); assay: SPR, VHH captured by anti-Fc, ECD analyte
T2 construct: extracellular domain
T2 sequence (A0A2K5WMU9 entry or part of it): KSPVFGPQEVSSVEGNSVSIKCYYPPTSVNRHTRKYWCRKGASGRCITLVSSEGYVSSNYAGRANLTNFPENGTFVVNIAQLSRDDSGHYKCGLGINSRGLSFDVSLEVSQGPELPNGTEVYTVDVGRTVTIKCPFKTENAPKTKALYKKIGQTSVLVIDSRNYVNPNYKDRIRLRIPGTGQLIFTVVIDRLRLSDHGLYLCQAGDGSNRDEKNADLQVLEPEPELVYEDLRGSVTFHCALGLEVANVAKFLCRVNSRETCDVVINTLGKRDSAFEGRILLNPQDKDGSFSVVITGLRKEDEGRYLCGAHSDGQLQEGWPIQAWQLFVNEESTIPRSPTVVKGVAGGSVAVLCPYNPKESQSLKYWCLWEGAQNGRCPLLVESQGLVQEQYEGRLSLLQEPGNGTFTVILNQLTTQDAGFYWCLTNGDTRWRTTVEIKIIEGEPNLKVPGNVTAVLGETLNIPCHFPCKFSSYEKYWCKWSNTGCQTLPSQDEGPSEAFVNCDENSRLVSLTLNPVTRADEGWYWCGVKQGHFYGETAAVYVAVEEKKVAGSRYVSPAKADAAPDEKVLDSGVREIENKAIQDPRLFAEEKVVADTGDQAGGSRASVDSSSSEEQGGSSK
Method: as §1, §2, §3

T1 sequence (P01833 other isoform, or with tags, fused parts or gaps): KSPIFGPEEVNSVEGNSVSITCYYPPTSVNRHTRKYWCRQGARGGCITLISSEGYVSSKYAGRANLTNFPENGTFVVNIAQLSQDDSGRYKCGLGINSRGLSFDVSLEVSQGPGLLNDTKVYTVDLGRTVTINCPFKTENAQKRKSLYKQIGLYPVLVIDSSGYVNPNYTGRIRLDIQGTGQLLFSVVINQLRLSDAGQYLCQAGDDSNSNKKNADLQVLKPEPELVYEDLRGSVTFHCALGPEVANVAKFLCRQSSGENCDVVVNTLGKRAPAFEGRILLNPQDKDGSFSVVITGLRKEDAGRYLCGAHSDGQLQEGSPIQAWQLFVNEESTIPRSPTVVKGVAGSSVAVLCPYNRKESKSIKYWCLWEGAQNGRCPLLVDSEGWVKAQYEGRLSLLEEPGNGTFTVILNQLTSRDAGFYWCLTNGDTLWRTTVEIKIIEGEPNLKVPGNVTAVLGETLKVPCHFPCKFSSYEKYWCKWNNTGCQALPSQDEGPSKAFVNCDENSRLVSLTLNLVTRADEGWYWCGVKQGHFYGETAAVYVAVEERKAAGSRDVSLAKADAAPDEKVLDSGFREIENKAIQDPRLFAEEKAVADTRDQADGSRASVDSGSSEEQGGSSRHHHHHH

Binder	Kd [1] [nM]	Kd [2] [nM]
01B04R2 VHH Mono-Fc (Fc fusion) EVQLVESGGGLVQAGGSLRLSCAASGRTFTSYTMGWFRQAPGKEREFVAAIKWNGGSTYYADSVKGRFTISRDNAKNTVYLQMNSLKPEDTAVYYCAADGDPYFSPTDGIVWHAPHQSEYDYWGQGTLVTVSSSPAPELLGGPSVFLFPPKPKDTLMISRTPEVTCVVVDVSHEDPEVKFNWYVDGVEVHNAKTKPREEQYNSTYRVVSVLTVLHQDWLNGKEYKCKVSNKALPAPIEKTISKAKGQPREPQVYTKPPSREEMTKNQVSLSCLVKGFYPSDIAVEWESNGQPENNYKTTVPVLDSDGSFRLASYLTVDKSRWQQGNVFSCSVMHEALHNHYTQKSLSLSPGK	16.8	–
03G05R3 VHH Mono-Fc (Fc fusion) EVQLVESGGGLVQAGDSLRLSCAASGRALSFNTYAMAWFRQAPGKEREFVASITYNGGSTYYADSVKGRFTVTRDNGKNTVTLRMNSLKPDDTAVYYCASAQYWRSGTSFPANYWGQGTQVTVSSSPAPELLGGPSVFLFPPKPKDTLMISRTPEVTCVVVDVSHEDPEVKFNWYVDGVEVHNAKTKPREEQYNSTYRVVSVLTVLHQDWLNGKEYKCKVSNKALPAPIEKTISKAKGQPREPQVYTKPPSREEMTKNQVSLSCLVKGFYPSDIAVEWESNGQPENNYKTTVPVLDSDGSFRLASYLTVDKSRWQQGNVFSCSVMHEALHNHYTQKSLSLSPGK	3.7	30.1
01F04R3 VHH Mono-Fc (Fc fusion) QVQLVESGGGLVQAGDSLRLSCAASGRALSFNTYAMAWFRQAPGKEREFVASITYNGGSTYYADSVRGRFTVTRDSGKNTVTLRMNSLKPDDTAVYYCASAQYWRSGTSFPANYWGQGTLVTVSSSPAPELLGGPSVFLFPPKPKDTLMISRTPEVTCVVVDVSHEDPEVKFNWYVDGVEVHNAKTKPREEQYNSTYRVVSVLTVLHQDWLNGKEYKCKVSNKALPAPIEKTISKAKGQPREPQVYTKPPSREEMTKNQVSLSCLVKGFYPSDIAVEWESNGQPENNYKTTVPVLDSDGSFRLASYLTVDKSRWQQGNVFSCSVMHEALHNHYTQKSLSLSPGK	5.92	30.9
01C09R3LS VHH Mono-Fc (Fc fusion) EVQLVESGGGLVQAGGSLRLSCAASGRTINTYVMGWFRQAPGKEREFVARIDWSGSSTDYADSVKGRFTISRDNAKNTVYLQMNSLKPEDTAVYYCAGSAYYSGYVTHRDFGSWGQGTQVTVSSSPAPELLGGPSVFLFPPKPKDTLMISRTPEVTCVVVDVSHEDPEVKFNWYVDGVEVHNAKTKPREEQYNSTYRVVSVLTVLHQDWLNGKEYKCKVSNKALPAPIEKTISKAKGQPREPQVYTKPPSREEMTKNQVSLSCLVKGFYPSDIAVEWESNGQPENNYKTTVPVLDSDGSFRLASYLTVDKSRWQQGNVFSCSVMHEALHNHYTQKSLSLSPGK	6.92	93.7
01G10R3LS VHH Mono-Fc (Fc fusion) EVQLVESGGGLVQAGGSLRLSCAASGRTINTYVTGWFRQAPGKEREFVARIDWSGSSTDYADSVKGRFTISRDNAKNTVYLQMNSLKPEDTAVYYCAGSAYYSGYVTHRDFGSWGQGTQVTVSSSPAPELLGGPSVFLFPPKPKDTLMISRTPEVTCVVVDVSHEDPEVKFNWYVDGVEVHNAKTKPREEQYNSTYRVVSVLTVLHQDWLNGKEYKCKVSNKALPAPIEKTISKAKGQPREPQVYTKPPSREEMTKNQVSLSCLVKGFYPSDIAVEWESNGQPENNYKTTVPVLDSDGSFRLASYLTVDKSRWQQGNVFSCSVMHEALHNHYTQKSLSLSPGK	18.5	287
01E09R3LS VHH Mono-Fc (Fc fusion) EVQLVESGGGLVQAGGSLRLSCAASGRTINTYVMGWFRQAPGKEREFVARIDWSGSSTDYADSVKGRFTTSRDNAKNTVYLQMNGLKPEDTAVYYCAGSAYYSGYVTHRDFGSWGQGTLVTVSSSPAPELLGGPSVFLFPPKPKDTLMISRTPEVTCVVVDVSHEDPEVKFNWYVDGVEVHNAKTKPREEQYNSTYRVVSVLTVLHQDWLNGKEYKCKVSNKALPAPIEKTISKAKGQPREPQVYTKPPSREEMTKNQVSLSCLVKGFYPSDIAVEWESNGQPENNYKTTVPVLDSDGSFRLASYLTVDKSRWQQGNVFSCSVMHEALHNHYTQKSLSLSPGK	8.39	135
01B05R2 VHH Mono-Fc (Fc fusion) EVQLVESGGGLVQAGGSLRLSCAASGRSLSFDTYAMGWFRQAPGKEREFVASIDWNGGSTYYADSVKGRFTISRDNARNTVNLRMNSLKPDDTAVYYCAAARYYTSGTYFPANYWGQGTQVTVSSSPAPELLGGPSVFLFPPKPKDTLMISRTPEVTCVVVDVSHEDPEVKFNWYVDGVEVHNAKTKPREEQYNSTYRVVSVLTVLHQDWLNGKEYKCKVSNKALPAPIEKTISKAKGQPREPQVYTKPPSREEMTKNQVSLSCLVKGFYPSDIAVEWESNGQPENNYKTTVPVLDSDGSFRLASYLTVDKSRWQQGNVFSCSVMHEALHNHYTQKSLSLSPGK	3.55	177
01H05R3 VHH Mono-Fc (Fc fusion) QVQLVESGGGLVQAGGSLRLSCAASGRSLGFDTYGMAWFRQAPGKEREFVASIDWNGGSTYYADSMKGRFTISRDNAKNTVNLRMNSLKPDDTAVYYCAAARYYTSSTYFPANYWGQGTQVTVSSSPAPELLGGPSVFLFPPKPKDTLMISRTPEVTCVVVDVSHEDPEVKFNWYVDGVEVHNAKTKPREEQYNSTYRVVSVLTVLHQDWLNGKEYKCKVSNKALPAPIEKTISKAKGQPREPQVYTKPPSREEMTKNQVSLSCLVKGFYPSDIAVEWESNGQPENNYKTTVPVLDSDGSFRLASYLTVDKSRWQQGNVFSCSVMHEALHNHYTQKSLSLSPGK	7.54	406

Now those with a lower Kd [1], led by results:

Kd [1] [nM]	Kd [2] [nM]	Binder
3.09	46.3	01C04R3 VHH Mono-Fc (Fc fusion) QVQLVESGGGLVQAGDSLRLSCAASGRALSFNTYAMAWFRQAPGKEREFVASITYNGGSTYYADSVKGRFTVTRDNGKDTVTLRMNSLKPDDTAVYYCASAQYWRSGTSFPANYWGQGTLVTVSSSPAPELLGGPSVFLFPPKPKDTLMISRTPEVTCVVVDVSHEDPEVKFNWYVDGVEVHNAKTKPREEQYNSTYRVVSVLTVLHQDWLNGKEYKCKVSNKALPAPIEKTISKAKGQPREPQVYTKPPSREEMTKNQVSLSCLVKGFYPSDIAVEWESNGQPENNYKTTVPVLDSDGSFRLASYLTVDKSRWQQGNVFSCSVMHEALHNHYTQKSLSLSPGK
1.44	14.4	01D06R2 VHH Mono-Fc (Fc fusion) QVQLVESGGGLVQAGDSLRLSCAASGRTLSFDTYAMAWFRQAPGKEREFVASIDWNGVNTYYADSVKGRFTVTRDNTKNTVTLRMNSLKTDDTAVYYCAAAQYYRSGTSFPANSWGQGTQVTVSSSPAPELLGGPSVFLFPPKPKDTLMISRTPEVTCVVVDVSHEDPEVKFNWYVDGVEVHNAKTKPREEQYNSTYRVVSVLTVLHQDWLNGKEYKCKVSNKALPAPIEKTISKAKGQPREPQVYTKPPSREEMTKNQVSLSCLVKGFYPSDIAVEWESNGQPENNYKTTVPVLDSDGSFRLASYLTVDKSRWQQGNVFSCSVMHEALHNHYTQKSLSLSPGK
1.48	3.99	02G03R3 VHH Mono-Fc (Fc fusion) EVQLVESGGGLVQAGGSLRLSCAASGMPDNIFSIKTMGWYRQAPGKERELVAAITSGGSTNYGDSVKDRFTISRDRIENTVNLEMNNLKPEDTAVYTCHADLTYIRFQDMEYWGKGTQVTVSSSPAPELLGGPSVFLFPPKPKDTLMISRTPEVTCVVVDVSHEDPEVKFNWYVDGVEVHNAKTKPREEQYNSTYRVVSVLTVLHQDWLNGKEYKCKVSNKALPAPIEKTISKAKGQPREPQVYTKPPSREEMTKNQVSLSCLVKGFYPSDIAVEWESNGQPENNYKTTVPVLDSDGSFRLASYLTVDKSRWQQGNVFSCSVMHEALHNHYTQKSLSLSPGK
2.93	108	03H05R3 VHH Mono-Fc (Fc fusion) QVQLVESGGGLVQAGGSLSLSCAASGRSLSFDTYAMSWFRQAPGKEREFVASIDWNGGSTSYADSMKGRFTISRDNAKNTVNLRIRSLKPDDTAVYFCASARYYIGGTYFPANYWGQGTQVTVSSSPAPELLGGPSVFLFPPKPKDTLMISRTPEVTCVVVDVSHEDPEVKFNWYVDGVEVHNAKTKPREEQYNSTYRVVSVLTVLHQDWLNGKEYKCKVSNKALPAPIEKTISKAKGQPREPQVYTKPPSREEMTKNQVSLSCLVKGFYPSDIAVEWESNGQPENNYKTTVPVLDSDGSFRLASYLTVDKSRWQQGNVFSCSVMHEALHNHYTQKSLSLSPGK
1.67	17.5	03C10R3 VHH Mono-Fc (Fc fusion) QVQLVESGGGLVQRGGSLRLSCAASGRSLGFDTYAMGWFRQAPGKEREFVASIDWNGGNTYYADSVKGRFTISRDNAKNTVNLRMNSLKPDDTAAYYCAAARYYTSGTYFPANYWGRGTLVTVSSSPAPELLGGPSVFLFPPKPKDTLMISRTPEVTCVVVDVSHEDPEVKFNWYVDGVEVHNAKTKPREEQYNSTYRVVSVLTVLHQDWLNGKEYKCKVSNKALPAPIEKTISKAKGQPREPQVYTKPPSREEMTKNQVSLSCLVKGFYPSDIAVEWESNGQPENNYKTTVPVLDSDGSFRLASYLTVDKSRWQQGNVFSCSVMHEALHNHYTQKSLSLSPGK
